The values that follow come from the DeepSol protein solubility set.

The nature of this series: soluble on expression in E. coli; label from the status in PepcDB or PDB records.
Regarding “EDHEGRHMMAVLPANNKISLSRLNDEFNATFHLVKERMVYRLFTDCEHGAIPPIGSPYHMSTVCDERLANLEHVYLEAGDHETLIKLDRKAFKDLMNDCKYLRFSSEVLH”, the “soluble on expression in E. coli” value is reported as “not soluble”. The result for “EDRPSKAPSFWYKIDPSHTQGYRTVQLVWKTLPPFEANGKILDYEVTLTRWKSHLQNYTVNATKLTVNLTNDRYLATLTVRNLVGKSDAAVLTIPACDFQATHPVMDLKAFPKDNMLWVEWTTPRESVKKYILEWCVLSDKAPCITDWQQEDGTVHRTYLRGNLAESKCYLITVTPVYADGPGSPESIKAYLKQAPPSKGPTVRTKKVGKNEAVLEWDQLPVDVQNGFIRNYTIFYRTIIGNETAVNVDSSHTEYTLSSLTSDTLYMVRMAAYTDEGGKDGPEFTFTTPK” reads “soluble”. The result for “EETAKEVMTSRLDMVDLEINTPYSDVLKCIVENAYSRIPVYAESRDNIKGILYIKDLLPHLGKGDNFRWQTLVRPAYFVPETKMIDDLLRDFQANKIHIAIVVDEFGGTSGIVTMEDIIEEIVGEINDEYDD” reads “soluble”; that for “EFIGCNDHTVVIEDDGRRWVTREPALVYFNKHTWFNVVAMIRDSGVSYYCNIASPFVLDREALKYVDYDLDVKVFPNGERRLLDMDEFEQFSKKWRYP”, “not soluble”; that for “EGIRQGVLKTAQNGNGNLIYLTGGMATVDHGAFHQGKFLTLKMDDSEVVRALPDVKSVAPTAKWKERITVGDRSSWQEPLAVTSEFQSMTNLVPMAGGRWLNPLDQKETRKVVVLGYELAADLFNPNEDFSWFATVTLQVNPVGKKVKIGNEEFTVVGVLEKNSAQIELGDLINYSSFVPLATWKRFHVNGEIGGINVQPQADVDREALAKTIRQVIARKHGASVNDEQVVQVDDMFLKQKSMQQFLIGLQS”, “not soluble”. The result for “EGLNICKKIMVISDKNDAISEFIIKELERGCTIIDGKGGYTGKDTYILYTVLNRKEFIRLRIFIKETDPNAFITISDAKEVLGEGFKEI” reads “not soluble”; that for “EGRYIYMNPAHREMFGIATEDEILGRSWRELYSGDVADHIATTALPALLSTGGWRGELIGRRRDGSDLPQEVSLTLKADGGIICISRD”, “not soluble”. Turning to “EKPAMEYHWEEVFPELDSKNPMDRREMEQRREYLREKAKEAAAYAERPSSVRLASASLGTQPQEQPKPATPFQSQLTGILPEEQIQRLSEGIDKLAEAGEQLARIGRTAAAMTESYEQMQADQEGLRLNSQSYIQQMESLSRNISGLNTIYEIQLKGISSQIDTIDRINRGLAHIRDMYDNSVIDSSSFRNENERMARQLTQLNEVYARLLQALTTNVGLPGMPGNFGASNPSSSGSSPL”, the “soluble on expression in E. coli” value is on record as “not soluble”. Regarding “EKVKNSDYTFEVDFEGPFFPIVEGVNSFGKRMYRVAPQVLRVPLEKPETRVISDIKNGEVLVYVFIQSPEGVVPVSLNLEGKRFRFFNLEGKWICVFKSFLEDGAHELEITFNGPYGYTFSLKKEIYVIKRVAVPMRGEDGAFDYTVFAEHVVKRGETLWSIANQYGVRVGDIVLINRLEDPDRIVAGQVLKIGRVYFRENPVTIVVNLFSSKLALYYDGVLLKVYPVALGRSDATPPGRYWVLRKEIDPALYWFGEYISPRTPLNGLGTRYLQLSDPTYAIHGTSKPWEIGKRISHGCIRMFNRDVEEIDAFAGVGTEVVVVKEDKEFPERIY”, the “soluble on expression in E. coli” value is “not soluble”. The result for “ELEKSEELYKSLLEDASDAIVVVDENEIVKMVNKMAEEFFGHSSEEVVGLPLSRMLVLVKTHNIPIVYNFFQEVGKGRHVAEEIRFSRVEGEQVVGLIHANTVTIGSERLIQAIIRDVT” reads “not soluble”; that for “ELIEPEPRPLIITPSVIELPILRRRDIYMEVANVSIGRAADALARHFDVFVQLPLPNVNIFEVSELHMALRDLASHDNVSGVCQGFCGEGIAGEALVILSDSSVSDLKKLMKVPADSEELEELELLMDISNILVGSFLNGLGEQSEVRFFQSPPVLLGQHISIDSIIESTTGAFKRTMTFEVSYNIEGTSIRCDLLFMFVDESLPLLDNKLAYLMEEF”, “not soluble”.

Regarding “ELSYRLLDQIYINPAVILKREEQYIKDFQSYVTEQKLSMNDRKKIKEFTKTDWTIVMALYQENDIIFSSDSRFIVPLPADEYGETIKDTSEASGVFNVTFTDGAVQAALVYTGYENYQS”, the “soluble on expression in E. coli” value is given as “soluble”. For the sequence “EMEEREIINNVFEFGDMQAKNAMVQRIDMVAIDMEDSYDEIIQVFKTEKLSRMPVYEETIDDIVGILNIKDIIFLSDEEIESFDIKNYMREPFFTYEFKKITQLLEEMKLEKSQMAIVVDEYGGTSGLLTIEDLVEVIVGDIE”, the “soluble on expression in E. coli” value was “soluble”.

Regarding “EMEPEEERIRYSQRLRGTMRRRYEDDGISDDEIEGKRTFDLEEKLHTNKYNANFVTFMEGKDFNVEYIQRGGLRDPLIFKNSDGLGIKMPDPDFTVNDVKMCVGSRRMVDVMDVNTQKGIEMTMAQWTRYYETPEEEREKLYNVISLEFSHTRLENMVQRPSTVDFIDWVDNMWPRHLKESQTESTNAILEMQYPKVQKYCLMSVRGCYTDFHVDFGGTSVWYHIHQGGKVFWLIPPTAHNLELYENWLLSGKQGDIFLGDRVSDCQRIELKQGYTFVIPSGWIHAVYTPTDTLVFGGNFLHSFNIPMQLKIYNIEDRTRVPNKFRYPFYYEMCWYVLERYVYCITNRSHLTKEFQKESLSMDLELNGLESGNGDEEAVDREPRRLSSRRSVLTSPVANGVNLDYDGLGKTCRSLPSLKKTLAGDSSSDCSRGSHNGQVWDPQCAPRKDRQVHLTHFELEGLRCLVDKLESLPLHKKCVPTGIEDEDALIADVKILLEELANSDPKLALTGVPIVQWPKRDKLKFPTRPKVRVPTIPITKPHTMKPAPRLTPVRPAAASPIVSGARRRRVRCRKCKACVQGECGVCHYCRDMKKFGGPGRMKQSCVLRQCLAPRLPHSVTCSLCGEVDQNEETQDFEKKLMECCICNEIVHPGCLQMDGEGLLNEELPNCWECPKCYQEDSSEKAQKRKMEESDEEAVQAKVLRPLRSCDEPLTPPPHSPTSMLQLIHDPVSPRGMVTRSSPGAGPSDHHSASRDERFKRRQLLRLQATERTMVREKENNPSGKKELSEVEKAKIRGSYLTVTLQRPTKELHGTSIVPKLQAITASSANLRHSPRVLVQHCPARTPQRGDEEGLGGEEEEEEEEEEEDDSAEEGGAARLNGRGSWAQDGDESWMQREVWMSVFRYLSRRELCECMRVCKTWYKWCCDKRLWTKIDLSRCKAIVPQALSGIIKRQPVSLDLSWTNISKKQLTWLVNRLPGLKDLLLAGCSWSAVSALSTSSCPLLRTLDLRWAVGIKDPQIRDLLTPPADKPGQDNRSKLRNMTDFRLAGLDITDATLRLIIRHMPLLSRLDLSHCSHLTDQSSNLLTAVGSSTRYSLTELNMAGCNKLTDQTLIYLRRIANVTLIDLRGCKQITRKACEHFISDLSINSLYCLSDEKLIQKIS”, the “soluble on expression in E. coli” value is “soluble”. The result for “ENAIIGVNDHTLVTESDGRRWVTREPAIVYFHKKYWFNIIAMIRDNGTSYYCNMASPYYLDEEALKYIDYDLDVKIFTDGEKRLLDVEEYERHKRKMNYS” reads “not soluble”; that for “EPQVRESLGRDVMVVVDLSGSMAEPDFTSRTGEKISRLDAAKEVLTEFVQSRKGDRLGLVLFGDAAFVQTPFTADQKVWLELLNQTDVAMAGQSTHLGDAIGLAIKVFEQSDKSRGALEQDQNREKVAIVLTDGNDTGSFVEPIDAAKVAKAKGVRVHVIAMGDPETIGETALDMDTIHRIAKESGGEAFEALNRDELSAAYDEIGKLEPQLYESTTYRPKQSLHH”, “not soluble”.

For the sequence “ESLDEVVVVGMGTQRKVSVVGAVTSVNPAAISAPSTSVANMLGGVVPGIIAVDRSGEPGQDVSEFWIRGISTFGANQSALVLIDGIEGNLNDLDPSDIESFSILKDASATAVYGVRGANGVVLVTTRSGQEGR”, the “soluble on expression in E. coli” value is “not soluble”.

As to “EYGYEDLRESSNSLLNHQLSEIDQARLYSCLDHMREVLGDAVPDDILTEAILKHKFDVQKALSVVLEQDG”, the “soluble on expression in E. coli” value is recorded as “soluble”. The result for “FCLTLRRRYTMGHHHHHHHHHHSSGHIEGRHMKLEQTLTLSPNLIGFNSNEGEKLLLTSRSREDFFPLSMQFVTQVNQAYCGVASIIMVLNSLGINAPETAQYSPYRVFTQDNFFSNEKTKAVIAPEVVARQGMTLDELGRLIASYGVKVKVNHASDTNIEDFRKQVAENLKQDGNFVIVNYLRKEIGQERGGHISPLAAYNEQTDRFLIMDVSRYKYPPVWVKTTDLWKAMNTVDSVSQKTRGFVFVSKTQDD” reads “soluble”; that for “FDVERKAAPAIAESDLRVASFNVLNYFTSVADSGNNNPTGQNRGATNHDEFLIQQAKIVSAMNKMDADIIGLMEVENNGFGDGSAVQNLVDALNAEIDDADDHYTYVEIADKDKYQEEYFGSDAIMVAILYRAKVVTPKEAAKVIFTPEQHIAENTITRKDGAESNPAYDKYQRHSLLQTFTVQESGEDLSIVVNHFKSKGSECIEEWIAGVEDSEPADLQGNCNNFRVSAAHAVGEALKDVKGDVLLMGDLNAYGMEDPLLTLTDYSKEKYGRDIYTAGYTTINGGELQVEQTQIKQGYGLNNLNTLLHGTDTFSYTYSGELGNLDHALASNSLAQKVVAIEDWHINSLESNLFEYGSKYTGDMPKYKDAFSASDHDPVIIAIDLPDTDIDLP”, “not soluble”; that for “FGQYLAIRRTDALLRQQLDTLTIDTLSELEGKLPVKSNSLVIAYIRRVLESKDRPAHVQRLLADFEITADKDLAISKTLTKMGP”, “not soluble”. The result for “FLLEIGLEEMPAKYVTSSVLQLEKRVTDWLKDNQIEFKEIKTYSTPRRLTVLVEEMAEEQANRVEEAKGPAKKIALDDEGNWSKAALGFAKSQKVAPEDLTFREIKGVEYIYIKKEVIGEKTTALLPSLEKVVTSMTFPVSMHWGSNDLRYIRPIKWLIAMFGEEIIPFEITGVSTSNTSRGHRFLGKTATINQPSDYPHALLEQFVVVNASERKQAIVEQLRELETMENWQIREDDDLLEEVTNLVEYPTVLAGNFEKEYLELPEEVLITTMKEHQRYFPVFSQEGELLPHFVTVRNGNHENLDTVARGNEKVLRARLSDADFFYQEDLKITIDEAVAKLQNIVFHEKLGTLTEKMERVQKVALMLADYLNWQEEDKQDIIRLTNIYKFDLVTNIVGEFPELQGLMGEKYALLQGEKPAIATAIREHYLPSSAEGVLPQTDLGSLIAIADKLETLIGFFCVNIVPTGSADPFGLRRSAFGAMRIIQANGWDIPMLEVISRIVDMERAEGATELPSADVKKEVQTFLKNRLRVILQGHHIRHDIIDAVIGGDPNV” reads “not soluble”.

Take “FPELMPLRTQWTTIRDEALALQRIQKIRAAEGHTDAGFNSFFRRGWKRFYLKWYGTTHPSAIALCPKTTALLKNIPAIKAAMFAELPPGGDLRPHRDPFAGSMRLHLGLATPNHTSCFIDVDGQRYSWHDGEWVMFDETYIHYARNDTEHNRIILFCDIERPMRWRWAQALNRFVAKHLLAAGTSPN”: the “soluble on expression in E. coli” value is given as “not soluble”.

Consider “FSPLSSQSSACCFAYIARPLPRAHIKEYFYTSGKCSNPAVVFVTRKNRQVCANPEKKWVREYINSLEMS”, for which the “soluble on expression in E. coli” value is “soluble”. For “FTLRLNSTEMPMSDLIEVELLTGKQLLLVEPNMQAASVTQQILSQEGILVTYRSSLPENEEHYDYVLLNLAANQTYDEQSVAAWIEQAKRMAPSVIMGTPSTELALADQIMTEHQIQCLTKPLSRRKLLQS”, the “soluble on expression in E. coli” value is given as “not soluble”. The result for “FVSFKHKYKVTSINEIAKDTFEITGTSLKNELKYKAGQFAFIKIPEKKSFFPSHPFTMSNSNKSNEIQFSIKVLGDHTKALKENLKVGDTLSVSGPHGKFNYENGLKHQIWIAGGIGITPFRSFWQAELPSDYTVDLFYTYNNENEGAYINELNSINKNSNLNIHSIDSSKNGFLGLEDLEKHIDKNLEYSVFFCGPKPMREKLRRDFEKVNFKIKDMNYEHFHF” reads “not soluble”.
